The results in this text go back to PMC10289004.

Data set [1] is described as follows: RIPK1 protein level, HT-29 or HEK293. The note with it: glycan lost; control: untreated / control knockdown.
Data set [2] is described as follows: western blot, erythrocytes of LPS-injected mice. To be noted: glycan gained; control: LPS + PBS.
Data set [3] in a line: western blot, MEFs, 4h TSZ. The note with it: glycan lost; control: TSZ alone.
Data set [4] is described as follows: RIPK1 protein level, MEFs. To be noted: glycan lost; control: untreated.

B1: RIPK1 (hRIPK1): OGT knockdown (protein)
parent chain: MQPDMSLNVIKMKSSDFLESAELDSGGFGKVSLCFHRTQGLMIMKTVYKGPNCIEHNEALLEEAKMMNRLRHSRVVKLLGVIIEEGKYSLVMEYMEKGNLMHVLKAEMSTPLSVKGRIILEIIEGMCYLHGKGVIHKDLKPENILVDNDFHIKIADLGLASFKMWSKLNNEEHNELREVDGTAKKNGGTLYYMAPEHLNDVNAKPTEKSDVYSFAVVLWAIFANKEPYENAICEQQLIMCIKSGNRPDVDDITEYCPREIISLMKLCWEANPEARPTFPGIEEKFRPFYLSQLEESVEEDVKSLKKEYSNENAVVKRMQSLQLDCVAVPSSRSNSATEQPGSLHSSQGLGMGPVEESWFAPSLEHPQEENEPSLQSKLQDEANYHLYGSRMDRQTKQQPRQNVAYNREEERRRRVSHDPFAQQRPYENFQNTEGKGTAYSSAASHGNAVHQPSGLTSQPQVLYQNNGLYSSHGFGTRPLDPGTAGPRVWYRPIPSHMPSLHNIPVPETNYLGNTPTMPFSSLPPTDESIKYTIYNSTGIQIGAYNYMEIGGTSSSLLDSTNTNFKEEPAAKYQAIFDNTTSLTDKHLDPIRENLGKHWKNCARKLGFTQSQIDEIDHDYERDGLKEKVYQMLQKWVMREGIKGATVGKLAQALHQCSRIDLLSSLIYVSQN
Turning to B1, the expression_or_secretion entry in data set [1] is given as “no change”.

B2: RIPK1 (mouse): TMG (protein)
parent chain: MQPDMSLDNIKMASSDLLEKTDLDSGGFGKVSLCYHRSHGFVILKKVYTGPNRAEYNEVLLEEGKMMHRLRHSRVVKLLGIIIEEGNYSLVMEYMEKGNLMHVLKTQIDVPLSLKGRIIVEAIEGMCYLHDKGVIHKDLKPENILVDRDFHIKIADLGVASFKTWSKLTKEKDNKQKEVSSTTKKNNGGTLYYMAPEHLNDINAKPTEKSDVYSFGIVLWAIFAKKEPYENVICTEQFVICIKSGNRPNVEEILEYCPREIISLMERCWQAIPEDRPTFLGIEEEFRPFYLSHFEEYVEEDVASLKKEYPDQSPVLQRMFSLQHDCVPLPPSRSNSEQPGSLHSSQGLQMGPVEESWFSSSPEYPQDENDRSVQAKLQEEASYHAFGIFAEKQTKPQPRQNEAYNREEERKRRVSHDPFAQQRARENIKSAGARGHSDPSTTSRGIAVQQLSWPATQTVWNNGLYNQHGFGTTGTGVWYPPNLSQMYSTYKTPVPETNIPGSTPTMPYFSGPVADDLIKYTIFNSSGIQIGNHNYMDVGLNSQPPNNTCKEESTSRHQAIFDNTTSLTDEHLNPIRENLGRQWKNCARKLGFTESQIDEIDHDYERDGLKEKVYQMLQKWLMREGTKGATVGKLAQALHQCCRIDLLNHLIRASQS
Take B2: in data set [2], the “other: RIPK1 Ser166 phosphorylation” value was “decreases”.

B3: RIPK1 (mouse): OSMI-4 (protein)
parent chain: MQPDMSLDNIKMASSDLLEKTDLDSGGFGKVSLCYHRSHGFVILKKVYTGPNRAEYNEVLLEEGKMMHRLRHSRVVKLLGIIIEEGNYSLVMEYMEKGNLMHVLKTQIDVPLSLKGRIIVEAIEGMCYLHDKGVIHKDLKPENILVDRDFHIKIADLGVASFKTWSKLTKEKDNKQKEVSSTTKKNNGGTLYYMAPEHLNDINAKPTEKSDVYSFGIVLWAIFAKKEPYENVICTEQFVICIKSGNRPNVEEILEYCPREIISLMERCWQAIPEDRPTFLGIEEEFRPFYLSHFEEYVEEDVASLKKEYPDQSPVLQRMFSLQHDCVPLPPSRSNSEQPGSLHSSQGLQMGPVEESWFSSSPEYPQDENDRSVQAKLQEEASYHAFGIFAEKQTKPQPRQNEAYNREEERKRRVSHDPFAQQRARENIKSAGARGHSDPSTTSRGIAVQQLSWPATQTVWNNGLYNQHGFGTTGTGVWYPPNLSQMYSTYKTPVPETNIPGSTPTMPYFSGPVADDLIKYTIFNSSGIQIGNHNYMDVGLNSQPPNNTCKEESTSRHQAIFDNTTSLTDEHLNPIRENLGRQWKNCARKLGFTESQIDEIDHDYERDGLKEKVYQMLQKWLMREGTKGATVGKLAQALHQCCRIDLLNHLIRASQS
Regarding B3, in data set [3], the “other: RIPK1 Ser166 phosphorylation” value is “increases”. Besides, in data set [4], the expression_or_secretion result was “no change”.
